Literature values in US12258594B2, “Cas proteins with reduced immunogenicity and methods of screening thereof” (THE BROAD INSTITUTE, INC., priority 2018, dated 2025).

B1: Lys558: LbuCas13a with alanine substituted for Lys558 (protein, UniProt C7NBY4 1-1159, looked up, variant K558A)
CRISPR-associated …: MKVTKVGGISHKKYTSEGRLVKSESEENRTDERLSALLNMRLDMYIKNPSSTETKENQKRIGKLKKFFSNKMVYLKDNTLSLKNGKKENIDREYSETDILESDVRDKKNFAVLKKIYLNENVNSEELEVFRNDIKKKLNKINSLKYSFEKNKANYQKINENNIEKVEGKSKRNIIYDYYRESAKRDAYVSNVKEAFDKLYKEEDIAKLVLEIENLTKLEKYKIREFYHEIIGRKNDKENFAKIIYEEIQNVNNMKELIEKVPDMSELKKSQVFYKYYLDKEELNDKNIKYAFCHFVEIEMSQLLKNYVYKRLSNISNDKIKRIFEYQNLKKLIENKLLNKLDTYVRNCGKYNYYLQDGEIATSDFIARNRQNEAFLRNIIGVSSVAYFSLRNILETENENDITGRMRGKTVKNNKGEEKYVSGEVDKIYNENKKNEVKENLKMFYSYDFNMDNKNEIEDFFANIDEAISSIRHGIVHFNLELEGKDIFAFKNIAPSEISKKMFQNEINEKKLKLKIFRQLNSANVFRYLEKYKILNYLKRTRFEFVNKNIPFVPSFTALYSRIDDLKNSLGIYWKTPKTNDDNKTKEIIDAQIYLLKNIYYGEFLNYFMSNNGNFFEISKEIIELNKNDKRNLKTGFYKLQKFEDIQEKIPKEYLANIQSLYMINAGNQDEEEKDTYIDFIQKIFLKGFMTYLANNGRLSLIYIGSDEETNTSLAEKKQEFDKFLKKYEQNNNIKIPYEINEFLREIKLGNILKYTERLNMFYLILKLLNHKELTNLKGSLEKYQSANKEEAFSDQLELINLLNLDNNRVTEDFELEADEIGKFLDFNGNKVKDNKELKKFDTNKIYFDGENIIKHRAFYNIKKYGMLNLLEKIADKAGYKISIEELKKYSNKKNEIEKNHKMQENLHRKYARPRKDEKFTDEDYESYKQAIENIEEYTHLKNKVEFNELNLLQGLLLRILHRLVGYTSIWERDLRFRLKGEFPENQYIEEIFNFENKKNVKYKGGQIVEKYIKFYKELHQNDEVKINKYSSANIKVLKQEKKDLYIRNYIAHFNYIPHAEISLLEVLENLRKLLSYDRKLKNAVMKSVVDILKEYGFVATFKIGADKKIGIQTLESEKIVHLKNLKKKKLMTDRNSEELCKLVKIMFEYKMEEKKSEN
B2: Lys942Ala: Lys942Ala mutant of LbuCas13a (protein, UniProt C7NBY4 1-1159, looked up, variant K942A)
CRISPR-associated …: MKVTKVGGISHKKYTSEGRLVKSESEENRTDERLSALLNMRLDMYIKNPSSTETKENQKRIGKLKKFFSNKMVYLKDNTLSLKNGKKENIDREYSETDILESDVRDKKNFAVLKKIYLNENVNSEELEVFRNDIKKKLNKINSLKYSFEKNKANYQKINENNIEKVEGKSKRNIIYDYYRESAKRDAYVSNVKEAFDKLYKEEDIAKLVLEIENLTKLEKYKIREFYHEIIGRKNDKENFAKIIYEEIQNVNNMKELIEKVPDMSELKKSQVFYKYYLDKEELNDKNIKYAFCHFVEIEMSQLLKNYVYKRLSNISNDKIKRIFEYQNLKKLIENKLLNKLDTYVRNCGKYNYYLQDGEIATSDFIARNRQNEAFLRNIIGVSSVAYFSLRNILETENENDITGRMRGKTVKNNKGEEKYVSGEVDKIYNENKKNEVKENLKMFYSYDFNMDNKNEIEDFFANIDEAISSIRHGIVHFNLELEGKDIFAFKNIAPSEISKKMFQNEINEKKLKLKIFRQLNSANVFRYLEKYKILNYLKRTRFEFVNKNIPFVPSFTKLYSRIDDLKNSLGIYWKTPKTNDDNKTKEIIDAQIYLLKNIYYGEFLNYFMSNNGNFFEISKEIIELNKNDKRNLKTGFYKLQKFEDIQEKIPKEYLANIQSLYMINAGNQDEEEKDTYIDFIQKIFLKGFMTYLANNGRLSLIYIGSDEETNTSLAEKKQEFDKFLKKYEQNNNIKIPYEINEFLREIKLGNILKYTERLNMFYLILKLLNHKELTNLKGSLEKYQSANKEEAFSDQLELINLLNLDNNRVTEDFELEADEIGKFLDFNGNKVKDNKELKKFDTNKIYFDGENIIKHRAFYNIKKYGMLNLLEKIADKAGYKISIEELKKYSNKKNEIEKNHKMQENLHRKYARPRKDEKFTDEDYESYKQAIENIEEYTHLANKVEFNELNLLQGLLLRILHRLVGYTSIWERDLRFRLKGEFPENQYIEEIFNFENKKNVKYKGGQIVEKYIKFYKELHQNDEVKINKYSSANIKVLKQEKKDLYIRNYIAHFNYIPHAEISLLEVLENLRKLLSYDRKLKNAVMKSVVDILKEYGFVATFKIGADKKIGIQTLESEKIVHLKNLKKKKLMTDRNSEELCKLVKIMFEYKMEEKKSEN
B3: Tyr601Ala: Tyr601Ala mutant of LbuCas13a (protein, UniProt C7NBY4 1-1159, looked up, variant Y601A)
CRISPR-associated …: MKVTKVGGISHKKYTSEGRLVKSESEENRTDERLSALLNMRLDMYIKNPSSTETKENQKRIGKLKKFFSNKMVYLKDNTLSLKNGKKENIDREYSETDILESDVRDKKNFAVLKKIYLNENVNSEELEVFRNDIKKKLNKINSLKYSFEKNKANYQKINENNIEKVEGKSKRNIIYDYYRESAKRDAYVSNVKEAFDKLYKEEDIAKLVLEIENLTKLEKYKIREFYHEIIGRKNDKENFAKIIYEEIQNVNNMKELIEKVPDMSELKKSQVFYKYYLDKEELNDKNIKYAFCHFVEIEMSQLLKNYVYKRLSNISNDKIKRIFEYQNLKKLIENKLLNKLDTYVRNCGKYNYYLQDGEIATSDFIARNRQNEAFLRNIIGVSSVAYFSLRNILETENENDITGRMRGKTVKNNKGEEKYVSGEVDKIYNENKKNEVKENLKMFYSYDFNMDNKNEIEDFFANIDEAISSIRHGIVHFNLELEGKDIFAFKNIAPSEISKKMFQNEINEKKLKLKIFRQLNSANVFRYLEKYKILNYLKRTRFEFVNKNIPFVPSFTKLYSRIDDLKNSLGIYWKTPKTNDDNKTKEIIDAQIYLLKNIYAGEFLNYFMSNNGNFFEISKEIIELNKNDKRNLKTGFYKLQKFEDIQEKIPKEYLANIQSLYMINAGNQDEEEKDTYIDFIQKIFLKGFMTYLANNGRLSLIYIGSDEETNTSLAEKKQEFDKFLKKYEQNNNIKIPYEINEFLREIKLGNILKYTERLNMFYLILKLLNHKELTNLKGSLEKYQSANKEEAFSDQLELINLLNLDNNRVTEDFELEADEIGKFLDFNGNKVKDNKELKKFDTNKIYFDGENIIKHRAFYNIKKYGMLNLLEKIADKAGYKISIEELKKYSNKKNEIEKNHKMQENLHRKYARPRKDEKFTDEDYESYKQAIENIEEYTHLKNKVEFNELNLLQGLLLRILHRLVGYTSIWERDLRFRLKGEFPENQYIEEIFNFENKKNVKYKGGQIVEKYIKFYKELHQNDEVKINKYSSANIKVLKQEKKDLYIRNYIAHFNYIPHAEISLLEVLENLRKLLSYDRKLKNAVMKSVVDILKEYGFVATFKIGADKKIGIQTLESEKIVHLKNLKKKKLMTDRNSEELCKLVKIMFEYKMEEKKSEN
B4: Tyr938Ala: Tyr938Ala mutant of LbuCas13a (protein, UniProt C7NBY4 1-1159, looked up, variant Y938A)
CRISPR-associated …: MKVTKVGGISHKKYTSEGRLVKSESEENRTDERLSALLNMRLDMYIKNPSSTETKENQKRIGKLKKFFSNKMVYLKDNTLSLKNGKKENIDREYSETDILESDVRDKKNFAVLKKIYLNENVNSEELEVFRNDIKKKLNKINSLKYSFEKNKANYQKINENNIEKVEGKSKRNIIYDYYRESAKRDAYVSNVKEAFDKLYKEEDIAKLVLEIENLTKLEKYKIREFYHEIIGRKNDKENFAKIIYEEIQNVNNMKELIEKVPDMSELKKSQVFYKYYLDKEELNDKNIKYAFCHFVEIEMSQLLKNYVYKRLSNISNDKIKRIFEYQNLKKLIENKLLNKLDTYVRNCGKYNYYLQDGEIATSDFIARNRQNEAFLRNIIGVSSVAYFSLRNILETENENDITGRMRGKTVKNNKGEEKYVSGEVDKIYNENKKNEVKENLKMFYSYDFNMDNKNEIEDFFANIDEAISSIRHGIVHFNLELEGKDIFAFKNIAPSEISKKMFQNEINEKKLKLKIFRQLNSANVFRYLEKYKILNYLKRTRFEFVNKNIPFVPSFTKLYSRIDDLKNSLGIYWKTPKTNDDNKTKEIIDAQIYLLKNIYYGEFLNYFMSNNGNFFEISKEIIELNKNDKRNLKTGFYKLQKFEDIQEKIPKEYLANIQSLYMINAGNQDEEEKDTYIDFIQKIFLKGFMTYLANNGRLSLIYIGSDEETNTSLAEKKQEFDKFLKKYEQNNNIKIPYEINEFLREIKLGNILKYTERLNMFYLILKLLNHKELTNLKGSLEKYQSANKEEAFSDQLELINLLNLDNNRVTEDFELEADEIGKFLDFNGNKVKDNKELKKFDTNKIYFDGENIIKHRAFYNIKKYGMLNLLEKIADKAGYKISIEELKKYSNKKNEIEKNHKMQENLHRKYARPRKDEKFTDEDYESYKQAIENIEEATHLKNKVEFNELNLLQGLLLRILHRLVGYTSIWERDLRFRLKGEFPENQYIEEIFNFENKKNVKYKGGQIVEKYIKFYKELHQNDEVKINKYSSANIKVLKQEKKDLYIRNYIAHFNYIPHAEISLLEVLENLRKLLSYDRKLKNAVMKSVVDILKEYGFVATFKIGADKKIGIQTLESEKIVHLKNLKKKKLMTDRNSEELCKLVKIMFEYKMEEKKSEN
B5: Arg809Ala: Arg809Ala mutant of LbuCas13a (protein, UniProt C7NBY4 1-1159, looked up, variant R809A)
CRISPR-associated …: MKVTKVGGISHKKYTSEGRLVKSESEENRTDERLSALLNMRLDMYIKNPSSTETKENQKRIGKLKKFFSNKMVYLKDNTLSLKNGKKENIDREYSETDILESDVRDKKNFAVLKKIYLNENVNSEELEVFRNDIKKKLNKINSLKYSFEKNKANYQKINENNIEKVEGKSKRNIIYDYYRESAKRDAYVSNVKEAFDKLYKEEDIAKLVLEIENLTKLEKYKIREFYHEIIGRKNDKENFAKIIYEEIQNVNNMKELIEKVPDMSELKKSQVFYKYYLDKEELNDKNIKYAFCHFVEIEMSQLLKNYVYKRLSNISNDKIKRIFEYQNLKKLIENKLLNKLDTYVRNCGKYNYYLQDGEIATSDFIARNRQNEAFLRNIIGVSSVAYFSLRNILETENENDITGRMRGKTVKNNKGEEKYVSGEVDKIYNENKKNEVKENLKMFYSYDFNMDNKNEIEDFFANIDEAISSIRHGIVHFNLELEGKDIFAFKNIAPSEISKKMFQNEINEKKLKLKIFRQLNSANVFRYLEKYKILNYLKRTRFEFVNKNIPFVPSFTKLYSRIDDLKNSLGIYWKTPKTNDDNKTKEIIDAQIYLLKNIYYGEFLNYFMSNNGNFFEISKEIIELNKNDKRNLKTGFYKLQKFEDIQEKIPKEYLANIQSLYMINAGNQDEEEKDTYIDFIQKIFLKGFMTYLANNGRLSLIYIGSDEETNTSLAEKKQEFDKFLKKYEQNNNIKIPYEINEFLREIKLGNILKYTERLNMFYLILKLLNHKELTNLKGSLEKYQSANKEEAFSDQLELINLLNLDNNAVTEDFELEADEIGKFLDFNGNKVKDNKELKKFDTNKIYFDGENIIKHRAFYNIKKYGMLNLLEKIADKAGYKISIEELKKYSNKKNEIEKNHKMQENLHRKYARPRKDEKFTDEDYESYKQAIENIEEYTHLKNKVEFNELNLLQGLLLRILHRLVGYTSIWERDLRFRLKGEFPENQYIEEIFNFENKKNVKYKGGQIVEKYIKFYKELHQNDEVKINKYSSANIKVLKQEKKDLYIRNYIAHFNYIPHAEISLLEVLENLRKLLSYDRKLKNAVMKSVVDILKEYGFVATFKIGADKKIGIQTLESEKIVHLKNLKKKKLMTDRNSEELCKLVKIMFEYKMEEKKSEN

System: target RNA
Details: LbuCas13a alanine mutants
For B1, the “crRNA-guided target RNA cleavage activity” value is given as “dramatically reduced crRNA-guided RNA cleavage”.
For B2, the “crRNA-guided target RNA cleavage activity” value is listed as “reduced target RNA cleavage activity”.
In the case of B3, the “crRNA-guided target RNA cleavage activity” value is given as “reduced target RNA cleavage activity”.
In the case of B4, the “crRNA-guided target RNA cleavage activity” value is given as “reduced target RNA cleavage activity”.
For B5, the “crRNA-guided target RNA cleavage activity” value is listed as “reduced target RNA cleavage activity”.
